In patent publication US7361741 (LIPTON DIVISION OF CONOPCO, dated 2008):

T1: Human Pancreatic Lipase (human, UniProt P16233 17-465, in ELISA and phage selections: biotin (EZ link NHS-biotin) on free NH2-groups, molar ratio biotin to lipase 15 to 1; not biotinylated in the enzyme activity assay)
T1 construct: mature; Natural enzyme purified from a human source; In ELISA it was captured as biotinylated HPL on coated streptavidin; also called HPL; biotinylated HPL
T1 sequence (looked up): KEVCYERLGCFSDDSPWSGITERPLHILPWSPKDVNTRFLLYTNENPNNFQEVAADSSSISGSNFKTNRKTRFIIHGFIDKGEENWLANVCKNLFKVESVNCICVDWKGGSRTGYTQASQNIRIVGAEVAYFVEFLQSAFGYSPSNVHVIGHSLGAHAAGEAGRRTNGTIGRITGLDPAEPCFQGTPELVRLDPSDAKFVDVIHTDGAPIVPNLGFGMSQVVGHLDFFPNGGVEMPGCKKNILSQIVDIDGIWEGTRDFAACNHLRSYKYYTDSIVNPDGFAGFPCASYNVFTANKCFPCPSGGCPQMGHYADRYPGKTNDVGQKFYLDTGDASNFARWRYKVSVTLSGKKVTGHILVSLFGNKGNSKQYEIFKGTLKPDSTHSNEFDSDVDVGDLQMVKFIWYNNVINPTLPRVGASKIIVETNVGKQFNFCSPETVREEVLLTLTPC


What was measured:
[1] = target: T1, Human Pancreatic Lipase; assay: phage display selection in solution with biotinylated HPL, capture on streptavidin beads
Protocol: Free V_HH fragments were removed by precipitation of phage from the culture supernatant with PEG6000, thereby avoiding a disturbing competition between phage bound and free V_HH fragments. "In solution" capture of *E. coli* phage exposing HPL specific antibody fragments was performed with in vitro biotinylated lipase (EZ link NHS-biotin) covalently coupled to free NH_2-groups of the lipase according to the instructions of the supplier; the molar ratio between biotin and lipase was 15 to 1). For selection 15 nM and 40 nM Human Pancreatic Lipase was used in round one and 0.6 nM and 3 nM in round two. The carboxy terminal domain was prepared by proteolysis with chymotrypsin and purified with reversed phase HPLC. Lipase was biotinylated and used for selection of the immune library (combined short hinge and long hinge) at 15 and 70 nM during round one and at 1 and 3 and 15 nM during round two. During the binding phase of the selection "application conditions" (inclusion of 5.3 mM cholic acid and 36 mM deoxycholate) were used.

[2] = target: T1, Human Pancreatic Lipase; assay: ELISA, yeast culture medium on biotinylated HPL captured by streptavidin
Protocol: For ELISA in vitro biotinylated HPL (prepared as described in paragraph 2.2) was immobilised indirectly via streptavidin. Streptavidin was coated at 5 µg/ml in Phosphate Buffered Saline (PBS) during two hours at room temperature in MAXISORB plates (NUNC). The coat solution was removed and, after washing with 0.05 vol % Tween-20 in PBS (PBST), the wells were blocked during 30 minutes at room temperature with a 4 wt % skimmed milk solution made in PBS. Biotinylated HPL was captured by the coated streptavidin during 16 hours at 4° C. from a solution with a concentration of 2.5 µg/ml enzyme in PBST, followed by washing of the plate with PBTS to remove free biotinylated HPL.
Two clones from each construct were grown for 24 hours at 30° C. in YNB medium (0.67% Yeast Nitrogen without amino acids (Difio)) containing 2% glucose. For V_HH gene expression both pre-cultures were diluted 1/10 in 1 ml of YPD medium (1% yeast extract, 2% peptone, 2% glucose, 2% galactose) for induction of the GAL7 promoter and grown during 48 hours at 30° C. using 8 wells culture plates for cultivation. The V_HH production in the medium fraction of these clones was examined by analysis on a Coomassie blue stained polyacrylamide gel. Their functional characteristics were confirmed in ELISA on indirectly immobilised biotinylated HPL and in the lipase enzyme activity assay.

[3] = target: T2, protein A (UniProt P38507 37-477); assay: affinity chromatography on protein A sepharose
T2 construct: also called protein A sepharose (Pharmacia)

[4] = target: T1, Human Pancreatic Lipase; assay: ELISA on biotinylated HPL, E. coli and yeast produced VHH

Binder	binding result [2]	other results
HPL#11 (VHH, Llama VHH; E. coli form (pUR5084): VHH with hinge and C-terminal myc-tag; Yeast forms: PstI/BstEII VHH fragment, untagged (pUR5091) or with myc-tag and hexahistidine tail (pUR5099); also called anti-HPL VHH fragment HPL#11) VHH: QVQLQDSGGGLVQAGGSLRLSCAASGSIFSSDLMGWYRQAPGKEREAVARITRGGTTSYADSVKGRFTISRDNAKNTMYLQMNSLKPEDTAVYYCNARRSNYDRSWGDYWGQGTQVTVSS	–	binding result [1]: binds
HPL#12 (VHH, Llama VHH produced in E. coli from the phagemid, with hinge and C-terminal myc-tag; also called anti-HPL VHH fragment HPL#12) VHH: QVQLQESGGGLVQAGGSLRLSCAASGSIGSIHTMGWYRQTPGKERDVVATIQDGGSTNYADSVKGRFTISRDNTLNTVYLQMNDLKPEDTAVYYCNADVRPYRTSRYLEVWGQGTLVTVSS	–	binding result [1]: binds
HPL#14 (VHH, Llama VHH; Yeast form (pUR5265): PstI/NotI fragment including the hinge region, followed by myc- and hexahistidine tags; also called anti-HPL VHH fragment HPL#14) VHH: QVQLQESGGGLVQAGGSLRLSCAASGSIGSIHTMGWYRQTPGTERDVVATIQDGGSTNYADSVKGRFTISRDNILNTVYLQMNSLKPEDTAVYHCNADVRPYRTSRYLELWGQGTLVTVSS	binds	–
HPL#15 (VHH, Llama VHH; E. coli form (pUR5095): with hinge and myc-tag; Yeast forms: PstI/BstEII fragment, untagged (pUR1403) or with myc/His6 tags (pUR5097); also called anti-HPL VHH fragment HPL#15) VHH: QVQLQESGGGLVQAGGSLRLSCAASGSISSINVMGWFRQAPGKQRELVASITSGGSTNYADSLKGRFTISRDNAKNAVYLQMNNLKPEDTAVYYCNAHITPAGSSNYVYGYWGHGTKVTVSS	binds	–
HPL#18 (VHH, Llama VHH; E. coli form (pUR5086): with hinge and myc-tag; Yeast forms: PstI/BstEII fragment, untagged (pUR5092) or with myc/His6 tags (pUR5263); also called anti-HPL18; αHPL18) VHH: QVQLQDSGGGLVQAGGSLRLSCAASGTIGDIYTMAWHRQAPGKERELVASATESGSPNYADPVKGRFTISRDNGKLTVYLQMNSLKPEDTAVYYCNALIRRKFTSEYNEYWGQGTQVTVSS	binds	–
HPL#19 (VHH, Llama VHH; E. coli form (pUR5087): with hinge and myc-tag; Yeast forms: PstI/BstEII fragment, untagged (pUR5093) or with myc/His6 tags (pUR5264); also called anti-HPL VHH fragment HPL#19) VHH: QVQLQDSGGGLVQTGGSLRLSCAASGPIGDVYLMGWYRQAPGKQREMVASITATGPPNYTDSVKGRFTISRDNDKNTEYLQMNNLKPEDTAVYYCNAQVRVRFSSDYTNYWGQGTQVTVSSEPKTPKPQP	binds	binding result [3]: no binding
HPL#13 (VHH, Llama VHH; E. coli form (pUR5082): with hinge and myc-tag; Yeast forms: PstI/BstEII fragment, untagged (pUR5090) or with myc/His6 tags (pUR5098); also called anti-HPL VHH fragment HPL#13) VHH: QVQLQESGGGLVQAGGSLRLSCAASGTILSIIYMDWYRQTPGKQRELVGRITAGGSTNYADSAKGRFTISKDNAKNTVYLQMNSLKPEDTAVYYCNALITRWDKSVNDYWGQGTQVTVSS	–	binding result [4]: binds
